Source: patent US20230357348A1 (AstraZeneca / MedImmune, published 2023)
Where two headings read alike, the source gives them in different places. Starred links: 1 amine or outer side, 2 acyl side, 3 side chain; linkers in the order of their positions; H or OH if unused. Non-standard residues stand in square brackets, D forms with d. Groups on a side chain read outwards from the residue. Primed or numbered codes have the meaning given here. No end group written: not given here. *: point of attachment. C20 diacid = O=C(O)CCCCCCCCCCCCCCCCCCC(=O)*; C18 diacid = O=C(O)CCCCCCCCCCCCCCCCC(=O)*; γGlu = O=C(O)[C@H](CCC(=O)[*:2])N[*:1]; Palmitoyl = CCCCCCCCCCCCCCCC(=O)*; αMeF = C[C@](N)(Cc1ccccc1)C(=O)O; PEG2′ = polyethylene glycol 2; AEEA = NCCOCCOCC(=O)O; Aib = CC(C)(N)C(=O)O

B1: Peptide 347 (peptide)
peptide: HXHGTFTSDVSKXLDSQAAQDFVXWIANT
modifications: Aib at 2; αMePhe at 13; K(γE-C20diacid)24; C-terminal amide
B2: Peptide 356 (peptide)
peptide: HXHGSXTSDVSKXLDSQAAQDFVXWIANT
modifications: Aib at 2; αMePhe at 6 and 13; K(O2Oc-O2Oc-γE-C20diacid)24; C-terminal amide
B3: Peptide 367 (peptide)
peptide: H[Aib]HGS[αMeF]TSDVSK[αMeF]LDSRAAQDFVK([AEEA-AEEA-γGlu-C20 diacid])WIANT-NH2
modifications: not fully specified
B4: Peptide 357 (peptide)
peptide: HXHGSXTSDVSKXLDSQAAQDFVXWIANT
modifications: Aib at 2; αMePhe at 6 and 13; K(γE-γE-(PEG)2-γE-γE-C20diacid)24; C-terminal amide
B5: Peptide 384 (peptide)
peptide: H[Aib]HGS[αMeF]TSDVSK[αMeF]LDSQAAQD[αMeF]VK([AEEA-AEEA-γGlu-γGlu-C20 diacid])[Aib]IANT-NH2
B6: Peptide 382 (peptide)
peptide: H[Aib]HGS[αMeF]TSDVSK[αMeF]LDSR[Aib]AQDFVK([AEEA-AEEA-γGlu-γGlu-C18 diacid])SIANTGG-NH2
modifications: N-terminus assumed
SMILES: CC[C@H](C)[C@H](NC(=O)[C@H](CO)NC(=O)[C@H](CCCCNC(=O)COCCOCCNC(=O)COCCOCCNC(=O)CC[C@H](NC(=O)CC[C@H](NC(=O)CCCCCCCCCCCCCCCCC(=O)O)C(=O)O)C(=O)O)NC(=O)[C@@H](NC(=O)[C@H](Cc1ccccc1)NC(=O)[C@H](CC(=O)O)NC(=O)[C@H](CCC(N)=O)NC(=O)[C@H](C)NC(=O)C(C)(C)NC(=O)[C@H](CCCNC(=N)N)NC(=O)[C@H](CO)NC(=O)[C@H](CC(=O)O)NC(=O)[C@H](CC(C)C)NC(=O)[C@](C)(Cc1ccccc1)NC(=O)[C@H](CCCCN)NC(=O)[C@H](CO)NC(=O)[C@@H](NC(=O)[C@H](CC(=O)O)NC(=O)[C@H](CO)NC(=O)[C@@H](NC(=O)[C@](C)(Cc1ccccc1)NC(=O)[C@H](CO)NC(=O)CNC(=O)[C@H](Cc1c[nH]cn1)NC(=O)C(C)(C)NC(=O)[C@@H](N)Cc1c[nH]cn1)[C@@H](C)O)C(C)C)C(C)C)C(=O)N[C@@H](C)C(=O)N[C@@H](CC(N)=O)C(=O)N[C@H](C(=O)NCC(=O)NCC(N)=O)[C@@H](C)O
B7: Peptide 396 (of Table 9, position 10) (peptide)
peptide: H[Aib]QGS[αMeF]TSDK([PEG2′-PEG2′-γGlu-Palmitoyl])SKILDSRAAQD[αMeF]VEWIANT-NH2
B8: Peptide 360 (peptide)
peptide: H[Aib]IGS[αMeF]TSDVSK[αMeF]LDSRAAQDFVK([AEEA-AEEA-γGlu-C20 diacid])WIANT-NH2
modifications: N-terminus assumed
SMILES: CC[C@H](C)[C@H](NC(=O)[C@H](Cc1c[nH]c2ccccc12)NC(=O)[C@H](CCCCNC(=O)COCCOCCNC(=O)COCCOCCNC(=O)CC[C@H](NC(=O)CCCCCCCCCCCCCCCCCCC(=O)O)C(=O)O)NC(=O)[C@@H](NC(=O)[C@H](Cc1ccccc1)NC(=O)[C@H](CC(=O)O)NC(=O)[C@H](CCC(N)=O)NC(=O)[C@H](C)NC(=O)[C@H](C)NC(=O)[C@H](CCCNC(=N)N)NC(=O)[C@H](CO)NC(=O)[C@H](CC(=O)O)NC(=O)[C@H](CC(C)C)NC(=O)[C@](C)(Cc1ccccc1)NC(=O)[C@H](CCCCN)NC(=O)[C@H](CO)NC(=O)[C@@H](NC(=O)[C@H](CC(=O)O)NC(=O)[C@H](CO)NC(=O)[C@@H](NC(=O)[C@](C)(Cc1ccccc1)NC(=O)[C@H](CO)NC(=O)CNC(=O)[C@@H](NC(=O)C(C)(C)NC(=O)[C@@H](N)Cc1c[nH]cn1)[C@@H](C)CC)[C@@H](C)O)C(C)C)C(C)C)C(=O)N[C@@H](C)C(=O)N[C@@H](CC(N)=O)C(=O)N[C@H](C(N)=O)[C@@H](C)O
B9: Peptide 379 (peptide)
peptide: H[Aib]HGS[αMeF]TSDVSK[αMeF]LDSRAAQD[αMeF]VK([AEEA-AEEA-γGlu-C18 diacid])SIANT-NH2
modifications: not fully specified
B10: Peptide 348 (peptide)
peptide: HXHGTFTSDVSKXLDSQAAQDFVXWIANT
modifications: Aib at 2; αMePhe at 6 and 13; K(O2Oc-O2Oc-γE-C18diacid)24; C-terminal amide
B11: Peptide 349 (peptide)
peptide: HXQGSXTSDVSKXLDSQAAQDFVXWIANT
modifications: Aib at 2; αMePhe at 6 and 13; K(O2Oc-O2Oc-γE-C18diacid)24; C-terminal amide
B12: Peptide 359 (peptide)
peptide: HXIGSXTSDVSKXLDSQAAQDFVXWIANT
modifications: Aib at 2; αMePhe at 6 and 13; K(O2Oc-O2Oc-γE-C18diacid)24; C-terminal amide
B13: Peptide 354 (peptide)
peptide: HXHGSXTSDVSKXLDSQAAQDFVXWIANT
modifications: Aib at 2; αMePhe at 6 and 13; K(γE-C20diacid)24; C-terminal amide
B14: Peptide 361 (peptide)
peptide: H[Aib]IGS[αMeF]TSDVSK[αMeF]LDSRAAQDFVK([AEEA-AEEA-γGlu-C18 diacid])WIANT-NH2
modifications: N-terminus assumed
SMILES: CC[C@H](C)[C@H](NC(=O)[C@H](Cc1c[nH]c2ccccc12)NC(=O)[C@H](CCCCNC(=O)COCCOCCNC(=O)COCCOCCNC(=O)CC[C@H](NC(=O)CCCCCCCCCCCCCCCCC(=O)O)C(=O)O)NC(=O)[C@@H](NC(=O)[C@H](Cc1ccccc1)NC(=O)[C@H](CC(=O)O)NC(=O)[C@H](CCC(N)=O)NC(=O)[C@H](C)NC(=O)[C@H](C)NC(=O)[C@H](CCCNC(=N)N)NC(=O)[C@H](CO)NC(=O)[C@H](CC(=O)O)NC(=O)[C@H](CC(C)C)NC(=O)[C@](C)(Cc1ccccc1)NC(=O)[C@H](CCCCN)NC(=O)[C@H](CO)NC(=O)[C@@H](NC(=O)[C@H](CC(=O)O)NC(=O)[C@H](CO)NC(=O)[C@@H](NC(=O)[C@](C)(Cc1ccccc1)NC(=O)[C@H](CO)NC(=O)CNC(=O)[C@@H](NC(=O)C(C)(C)NC(=O)[C@@H](N)Cc1c[nH]cn1)[C@@H](C)CC)[C@@H](C)O)C(C)C)C(C)C)C(=O)N[C@@H](C)C(=O)N[C@@H](CC(N)=O)C(=O)N[C@H](C(N)=O)[C@@H](C)O
B15: Peptide 355 (peptide)
peptide: HXHGSXTSDVSKXLDSQAAQDFVXWIANT
modifications: Aib at 2; αMePhe at 6 and 13; K((PEG)2-(PEG)2-γE-γE-C20diacid)24; C-terminal amide
B16: Peptide 392 (of Table 9, position 10) (peptide)
peptide: H[Aib]HGS[αMeF]TSDK([AEEA-AEEA-γGlu-C18 diacid])SK[αMeF]LDSRAAQD[αMeF]VQ[Aib]IANT-NH2
modifications: N-terminus assumed
SMILES: CC[C@H](C)[C@H](NC(=O)C(C)(C)NC(=O)[C@H](CCC(N)=O)NC(=O)[C@@H](NC(=O)[C@](C)(Cc1ccccc1)NC(=O)[C@H](CC(=O)O)NC(=O)[C@H](CCC(N)=O)NC(=O)[C@H](C)NC(=O)[C@H](C)NC(=O)[C@H](CCCNC(=N)N)NC(=O)[C@H](CO)NC(=O)[C@H](CC(=O)O)NC(=O)[C@H](CC(C)C)NC(=O)[C@](C)(Cc1ccccc1)NC(=O)[C@H](CCCCN)NC(=O)[C@H](CO)NC(=O)[C@H](CCCCNC(=O)COCCOCCNC(=O)COCCOCCNC(=O)CC[C@H](NC(=O)CCCCCCCCCCCCCCCCC(=O)O)C(=O)O)NC(=O)[C@H](CC(=O)O)NC(=O)[C@H](CO)NC(=O)[C@@H](NC(=O)[C@](C)(Cc1ccccc1)NC(=O)[C@H](CO)NC(=O)CNC(=O)[C@H](Cc1c[nH]cn1)NC(=O)C(C)(C)NC(=O)[C@@H](N)Cc1c[nH]cn1)[C@@H](C)O)C(C)C)C(=O)N[C@@H](C)C(=O)N[C@@H](CC(N)=O)C(=O)N[C@H](C(N)=O)[C@@H](C)O
B17: Peptide 368 (peptide)
peptide: H[Aib]HGS[αMeF]TSDVSK[αMeF]LDSR[Aib]AQDFVK([AEEA-AEEA-γGlu-C20 diacid])WIANT-NH2
modifications: N-terminus assumed
SMILES: CC[C@H](C)[C@H](NC(=O)[C@H](Cc1c[nH]c2ccccc12)NC(=O)[C@H](CCCCNC(=O)COCCOCCNC(=O)COCCOCCNC(=O)CC[C@H](NC(=O)CCCCCCCCCCCCCCCCCCC(=O)O)C(=O)O)NC(=O)[C@@H](NC(=O)[C@H](Cc1ccccc1)NC(=O)[C@H](CC(=O)O)NC(=O)[C@H](CCC(N)=O)NC(=O)[C@H](C)NC(=O)C(C)(C)NC(=O)[C@H](CCCNC(=N)N)NC(=O)[C@H](CO)NC(=O)[C@H](CC(=O)O)NC(=O)[C@H](CC(C)C)NC(=O)[C@](C)(Cc1ccccc1)NC(=O)[C@H](CCCCN)NC(=O)[C@H](CO)NC(=O)[C@@H](NC(=O)[C@H](CC(=O)O)NC(=O)[C@H](CO)NC(=O)[C@@H](NC(=O)[C@](C)(Cc1ccccc1)NC(=O)[C@H](CO)NC(=O)CNC(=O)[C@H](Cc1c[nH]cn1)NC(=O)C(C)(C)NC(=O)[C@@H](N)Cc1c[nH]cn1)[C@@H](C)O)C(C)C)C(C)C)C(=O)N[C@@H](C)C(=O)N[C@@H](CC(N)=O)C(=O)N[C@H](C(N)=O)[C@@H](C)O
B18: Peptide 353 (peptide)
peptide: HXHGSXTSDVSKXLDSQAAQDFVXWIANT
modifications: Aib at 2; αMePhe at 6 and 13; K(γE-γE-(PEG)2-γE-γE-C18diacid)24 (printed YE-YE-(PEG)2-γE-γE-); C-terminal amide

Experiments:
Assay in all cases: cell-based or functional assay
[1] = target: T1, human glucagon receptor (hGCGR) (human, UniProt P47871 26-477)
T1 sequence (P47871 26-477): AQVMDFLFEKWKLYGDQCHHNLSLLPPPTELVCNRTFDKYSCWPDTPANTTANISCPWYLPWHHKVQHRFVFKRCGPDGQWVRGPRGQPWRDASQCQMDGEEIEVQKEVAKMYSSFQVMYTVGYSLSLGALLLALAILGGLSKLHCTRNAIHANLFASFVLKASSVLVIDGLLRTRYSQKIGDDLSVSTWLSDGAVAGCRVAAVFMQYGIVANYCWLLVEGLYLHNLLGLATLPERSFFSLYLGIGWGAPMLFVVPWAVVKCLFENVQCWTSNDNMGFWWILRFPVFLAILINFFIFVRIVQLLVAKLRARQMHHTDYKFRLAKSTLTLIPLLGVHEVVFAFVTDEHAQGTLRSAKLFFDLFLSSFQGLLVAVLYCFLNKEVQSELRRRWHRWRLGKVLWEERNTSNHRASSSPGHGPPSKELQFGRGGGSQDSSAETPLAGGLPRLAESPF

[2] = target: T2, human GLP-1 receptor (hGLP-1R) (human, UniProt P43220 24-463)
[3] = target: T1, human glucagon receptor (hGCGR); remark: listed apart in the source
[4] = target: T2, human GLP-1 receptor (hGLP-1R); remark: listed apart in the source

Row | Binder | hGluc-R EC50 (pM); cAMP production [1] | hGLP-1R EC50 (pM); cAMP production [2] | hGluc-R EC50 (pM); cAMP production [3] | hGLP-1R EC50 (pM); cAMP production [4]
1 | B1 | 597 pM | 4970 pM | – | –
2 | B2 | 316 pM | 304 pM | – | –
3 | B3 | 72.4 pM | 139 pM | – | –
4 | B4 | 550 pM | 917 pM | – | –
5 | B5 | 1240 pM | 797 pM | – | –
6 | B6 | 329 pM | 56 pM | – | –
7 | B7 | – | – | 11.8 pM | 0.583 pM
8 | B8 | 5640 pM | 108 pM | – | –
9 | B9 | 85.7 pM | 71.8 pM | – | –
10 | B10 | 4110 pM | 70.1 pM | – | –
11 | B11 | 83.7 pM | 121 pM | – | –
12 | B12 | 5050 pM | 46.1 pM | – | –
13 | B13 | 902 pM | 1110 pM | – | –
14 | B14 | 23.6 pM | 35.7 pM | – | –
15 | B15 | 478 pM | 424 pM | – | –
16 | B16 | – | – | 6920 pM | 312 pM
17 | B17 | 290 pM | 186 pM | – | –
18 | B18 | 163 pM | 311 pM | – | –
